Experimental data from US20260210971A1 (Pfizer, published 2026).
Values joined by “and” are separate entries in the source; they are usually repeats but may differ in a detail not shown here. Equal values may be shown once.

Legend:
[1] = biological target: T1, recombinant soluble human TL1A (human, UniProt O95150 71-251); experiment: cell-based or functional assay
T1 sequence: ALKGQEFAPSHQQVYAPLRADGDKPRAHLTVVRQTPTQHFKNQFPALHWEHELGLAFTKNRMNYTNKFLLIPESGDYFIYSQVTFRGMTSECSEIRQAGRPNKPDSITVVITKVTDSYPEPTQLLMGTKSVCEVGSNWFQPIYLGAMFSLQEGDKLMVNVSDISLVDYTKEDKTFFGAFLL

[2] = biological target: T2, endogenous TL1A of stimulated human peripheral blood (human, UniProt O95150 72-251, limits assumed); experiment: cell-based or functional assay
T2 sequence (looked up): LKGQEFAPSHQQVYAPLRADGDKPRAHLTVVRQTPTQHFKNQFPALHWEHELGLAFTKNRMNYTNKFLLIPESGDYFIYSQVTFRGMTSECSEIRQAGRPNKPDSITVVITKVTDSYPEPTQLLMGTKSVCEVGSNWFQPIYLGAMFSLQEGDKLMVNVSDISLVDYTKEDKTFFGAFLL

[3] = biological target: T3, endogenous TL1A of stimulated cynomolgus monkey peripheral blood (cynomolgus monkey, UniProt G7PRK8 72-251); experiment: cell-based or functional assay
T3 sequence: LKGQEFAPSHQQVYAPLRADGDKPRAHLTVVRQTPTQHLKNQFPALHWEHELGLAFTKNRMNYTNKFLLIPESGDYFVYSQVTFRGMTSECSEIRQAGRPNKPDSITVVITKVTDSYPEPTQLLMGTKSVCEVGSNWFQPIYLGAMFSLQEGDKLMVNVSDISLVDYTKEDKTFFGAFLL

[4] = biological target: T3, endogenous TL1A of stimulated …; experiment: MSD ligand-binding assay of 1D1 1.31-free sTL1A in plasma of stimulated cynomolgus blood; mean of n=6 monkeys
Protocol: (§1) Cynomolgus monkey peripheral blood treated with 1 ng/ml recombinant human IL-12 and 10 ng/ml recombinant human IL-18 was stimulated by immune complex coated plates for 24 hours at 37° C. […] Plasma was prepared from these samples and IFNγ was measured in the plasma samples by a quantitative immune-ligand binding assay using a Mesoscale (MSD) kit. […] Cynomolgus monkey peripheral blood treated with 1 ng/ml recombinant human IL-12 and 10 ng/ml recombinant human IL-18 was stimulated by immune complex coated plates for 24 hours at 37° C.
(§2) For IC and IL-12 and IL-18 stimulation, cynomolgus monkey blood was collected in sodium heparin coated tubes and used within one hour after the blood draw. Human IL-12 (1 ng/mL final concentration) and human IL-18 (10 ng/ml final concentration) were mixed in with blood prior to addition of 95 μL of the blood/IL-12/IL-18 mixture to each well of the IC coated plates.

[5] = biological target: T1, recombinant soluble human TL1A; experiment: plate ELISA, TL1A coated, antibody titrated; plate of TNF β
Protocol: (§3) The first 6 rows of each plate were coated with the test article cytokine, and the last two rows were coated with TL1A as a positive control. Rows 1 and 2 were duplicate rows where the test article cytokine was tested for binding to increasing concentrations of its corresponding anti-cytokine positive control antibody. […] The experiment for each cytokine was repeated three times.
(§4) Plates were incubated overnight at 4° C. After washing the plates three times (3×) with 300 μL PBST using a plate washer (model ELx405; BioTek), plates were blocked by incubating for 1 hour at room temperature with 300 μL of blocking buffer (PBST+0.5% BSA) in each well. […] Plates were then washed 5 times with PBST using the plate washer.

[6] = biological target: T4, recombinant soluble cynomolgus monkey TL1A (cynomolgus monkey, UniProt O95150 72-251 (human entry)); experiment: SPR, IgG captured on anti-hIgG, TL1A injected;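 note: biacore surface plasmon resonance on a dextran sensor chip, double-referenced sensorgrams fitted to a one-to-one binding model, KD taken as dissociation over association rate constant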
T4 construct: also called cyno rsTL1A; cyno TL1A
T4 chain: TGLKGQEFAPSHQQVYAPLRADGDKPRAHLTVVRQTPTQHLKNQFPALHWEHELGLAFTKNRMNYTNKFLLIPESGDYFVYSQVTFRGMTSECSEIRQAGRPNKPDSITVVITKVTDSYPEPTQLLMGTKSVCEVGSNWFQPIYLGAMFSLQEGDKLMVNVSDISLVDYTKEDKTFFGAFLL
Description: The antibodies were captured via directly immobilized anti-human IgG (GE Healthcare) onto a carboxymethylated dextran sensor chip surface (CM5) using a Biacore T100 or T200 instrument. Anti-human IgG was immobilized through amine coupling to densities of approximately 4,000-13,000 response units (RU). […] At the end of each cycle, the entire anti-hIgG surface was regenerated by a 30-second pulse of 3M MgCl₂ followed by two consecutive 15-second pulses of PBS-NET. […] All injections were performed at 25° C. at a collection rate of 10 Hz. All sensorgrams were double referenced by using both a control surface and buffer injections. Rate constants were determined by fitting the data to a 1:1 model in Biacore T100, T200 evaluation software v1.0, or BIAevaluation software v4.1.1 and the equation KD=Kd/kₐ.
At the highest cytokine concentrations, the dissociation phase was sometimes extended to 60 minutes to achieve at least a 5% decrease in binding signal.

[7] = biological target: T4, recombinant soluble cynomolgus monkey …; experiment: KinExA, equilibrium in solution
Protocol: (§5) This assay involves pre-incubating antibody: antigen mixtures in solution long enough to reach equilibrium before measuring the level of unbound antibody using a solid phase component. […] Beads were blocked for 1 hour with PBS plus 10 mg/ml bovine serum albumin (bovine serum albumin, Sigma) at room temperature before being diluted up to a total of 27 ml in PBS. […] For each titration series, a buffer sample and a sample of antibody alone were included. Each antibody: TL1A mixture was tumbled at room temperature for at least six hours to reach equilibrium and then each mixture was injected over the solid phase of TL1A-coated beads in the instrument flow cell. […] Beads were replenished between each sample. Binding signals of detected free antibody were converted to percentage of free, unbound antibody as measured by the antibody only sample and plotted versus each concentration of TL1A. For each antibody, the KD and ABC controlled curves were fit simultaneously using n-Curve Analysis software v3.1.4 to fit the curves to the ‘affinity, unknown ligand’ model and measure an equilibrium KD.
(§6) Solution-based kinetic exclusion assays (KinExA) were carried out as an orthogonal technique to measure equilibrium KD values.

[8] = biological target: T5, recombinant soluble murine TL1A (mouse, UniProt Q5UBV8 75-252); experiment: KinExA, equilibrium in solution
T5 construct: also called murine rsTL1A; mouse TL1A
T5 chain: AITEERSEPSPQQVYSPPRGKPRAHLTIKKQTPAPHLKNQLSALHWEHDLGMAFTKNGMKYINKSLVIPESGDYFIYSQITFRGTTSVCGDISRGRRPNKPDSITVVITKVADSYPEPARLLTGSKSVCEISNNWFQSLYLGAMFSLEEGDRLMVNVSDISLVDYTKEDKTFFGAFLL
Protocol: as §5, §6

[9] = biological target: T1, recombinant soluble human TL1A; experiment: KinExA, equilibrium in solution
Protocol: as §5, §6

[10] = biological target: T3, endogenous TL1A of stimulated …; experiment: MSD ligand-binding assay of 1D1 1.31-free sTL1A in plasma of stimulated cynomolgus blood; lower end over the monkeys; lower end of range over 6 monkeys
Protocol: as §1, §2

[11] = biological target: T1, recombinant soluble human TL1A; experiment: plate ELISA, TL1A coated, antibody titrated
[12] = biological target: T2, endogenous TL1A of stimulated human …; experiment: MSD ligand-binding assay of 1D1 1.31-free soluble TL1A in plasma of human whole blood stimulated 24 h with immune complex + IL-12/IL-18
Protocol: After 24 hours of culture at 37° C., 100 μL of 5% bovine serum albumin in PBS were added and mixed well with the 200 μL of blood cultures to dilute plasma (dilution factor: 1.5). […] IFNγ was measured using the MSD human IFNγ kit (Catalog No. K151AEB-1) following the manufacturer's instructions. […] The following day, plates were washed three times with 150 μL per well of 0.1% Tween 20 in PBS, followed with 150 μL per well of blocking solution (5% bovine serum albumin in PBS), then the plates were incubated at room temperature for 1 hour with orbital shaking (1500 rpm). After the plates were washed as mentioned above, diluted plasma samples were added and incubated at 4° C. overnight. […] TL1A standard curves were generated using recombinant human soluble TL1A. Plates were read following the manufacturer's procedure, standard curve and plasma concentration of the cytokine were calculated with the MSD software.

human Lymphotoxin α2-β1 = biological target: T6, human Lymphotoxin α2-β1 (human, UniProt P01374 35-205; Q06643 49-244, limits assumed); experiment: plate ELISA, cytokine coated
T6 construct: Copies read from the name α2-β1; also called Lymβ 1
T6 sequence (looked up) 1: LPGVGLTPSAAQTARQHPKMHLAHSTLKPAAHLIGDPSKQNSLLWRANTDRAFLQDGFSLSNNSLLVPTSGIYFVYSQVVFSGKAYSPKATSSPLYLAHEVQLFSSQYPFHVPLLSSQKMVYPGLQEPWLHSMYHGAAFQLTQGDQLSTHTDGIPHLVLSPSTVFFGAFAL
T6 sequence (looked up) 2: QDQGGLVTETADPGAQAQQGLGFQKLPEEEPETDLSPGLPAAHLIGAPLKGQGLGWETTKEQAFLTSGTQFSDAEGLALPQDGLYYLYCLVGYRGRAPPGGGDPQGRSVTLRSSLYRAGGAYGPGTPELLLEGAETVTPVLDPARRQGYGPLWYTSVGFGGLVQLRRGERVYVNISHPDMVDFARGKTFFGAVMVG
Protocol: as §3, §4

human Lymphotoxin α1-β2 = biological target: T7, human Lymphotoxin α1-β2 (human, UniProt P01374 35-205; Q06643 49-244, limits assumed); experiment: plate ELISA, cytokine coated
T7 construct: Copies read from the name α1-β2; also called Lymβ 2
T7 sequence (looked up) 1: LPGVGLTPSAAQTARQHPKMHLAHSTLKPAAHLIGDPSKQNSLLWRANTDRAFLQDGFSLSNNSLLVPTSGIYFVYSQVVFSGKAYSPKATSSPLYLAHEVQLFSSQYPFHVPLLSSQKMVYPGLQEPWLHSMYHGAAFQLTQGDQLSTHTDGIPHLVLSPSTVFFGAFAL
T7 sequence (looked up) 2: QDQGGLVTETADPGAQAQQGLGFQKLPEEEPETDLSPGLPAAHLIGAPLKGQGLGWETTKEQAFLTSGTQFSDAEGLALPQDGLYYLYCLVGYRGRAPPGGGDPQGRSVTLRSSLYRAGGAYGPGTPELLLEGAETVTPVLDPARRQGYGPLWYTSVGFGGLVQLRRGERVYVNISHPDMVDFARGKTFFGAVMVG
Protocol: as §3, §4

human TNF-β = biological target: T8, human TNF-β (human, UniProt P01374 35-205); experiment: plate ELISA, cytokine coated
T8 construct: The source sentence prints 'Human TNF-from Peprotech'
T8 sequence (looked up): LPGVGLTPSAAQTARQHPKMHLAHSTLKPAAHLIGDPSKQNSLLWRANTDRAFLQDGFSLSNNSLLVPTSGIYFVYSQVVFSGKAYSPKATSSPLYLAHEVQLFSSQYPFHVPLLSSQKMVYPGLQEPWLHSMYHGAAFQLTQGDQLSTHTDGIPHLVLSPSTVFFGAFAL
Protocol: as §3, §4

human TNF-α = biological target: T9, human TNF-α (human, UniProt P01375 77-233); experiment: plate ELISA, cytokine coated
T9 construct: also called TNF alpha
Protocol: as §3, §4

human TNFSF14 (LIGHT) = human TNFSF14 (LIGHT) (human, UniProt O43557 74-240, limits assumed); experiment: plate ELISA, cytokine coated
Protocol: as §3, §4

human TNFSF10 (TRAIL) = human TNFSF10 (TRAIL) (human, UniProt P50591 114-281); experiment: plate ELISA, cytokine coated
human TNFSF10 (TRAIL), sequence (P50591 114-281 limits assumed): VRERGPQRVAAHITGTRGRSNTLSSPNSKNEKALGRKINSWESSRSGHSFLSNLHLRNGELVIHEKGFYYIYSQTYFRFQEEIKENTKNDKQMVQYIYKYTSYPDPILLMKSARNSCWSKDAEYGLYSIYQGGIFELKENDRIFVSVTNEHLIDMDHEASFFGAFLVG
Protocol: as §3, §4

T9 sequence (P01375 77-233 limits assumed): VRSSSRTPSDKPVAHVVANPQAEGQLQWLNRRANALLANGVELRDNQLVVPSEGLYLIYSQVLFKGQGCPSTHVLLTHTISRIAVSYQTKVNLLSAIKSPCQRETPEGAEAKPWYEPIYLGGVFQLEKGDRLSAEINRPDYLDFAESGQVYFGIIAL
human TNFSF14 (LIGHT), sequence (O43557 74-240 limits assumed): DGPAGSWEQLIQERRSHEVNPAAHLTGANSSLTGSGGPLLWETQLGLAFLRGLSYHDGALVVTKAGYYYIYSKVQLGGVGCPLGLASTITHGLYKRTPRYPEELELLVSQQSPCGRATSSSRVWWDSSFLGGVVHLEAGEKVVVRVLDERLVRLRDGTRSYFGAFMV

B1: 1D1 1.31 (antibody, human IgG1, kappa, V domains shown)
VH: QVQLVQSGAEVKKPGASVKVSCKASGYDFTYYGISWVRQAPGQGLEWMGWISTYNGNTHYARMLQGRVTMTTDTSTRTAYMELRSLRSDDTAVYYCARENYYGSGAYRGGMDVWGQGTTVTVSS
VL: EIVLTQSPATLSLSPGERATLSCRASQSVSSYLAWYQQKPGQAPRLLIYDASNRATGIPARFSGSGSGTDFTLTISSLEPEDFAVYYCQQRSNWPWTFGQGTKVEIKR
notes: Full length human IgG1 with effector function-null mutations in the Fc, produced in CHO cells; Used biotinylated for staining of monocytes
In the case of B1, the “inhibition of NFκB activation by 150 pM TL1A in TF-1-NFκB-luciferase cells, IC50” value [1] is reported as 95 pM, the “inhibition of caspase activation by 87 pM TL1A in TF-1 cells, IC50” value [1] is reported as 69 pM and the “inhibition of IFNγ secretion in stimulated human whole blood, IC50” value [2] is reported as 277 pM. The “inhibition of IFNγ secretion in stimulated cynomolgus whole blood, IC50” value [3] was 36 pM, the IC50 [4] was 22 pM and the EC50 [5] was 0.0023 ng/mL. The Kd [6] was 81 pM, the koff [6] was 3.6e-05 s⁻¹ and the kon [6] was 450000 M⁻¹ s⁻¹. It also gave a t1/2 [6] of 5.34 h, a Kd [7] of 3.5 pM and a Kd [8] of 95.3 pM. The Kd [9] was 1.38 pM and 3.6 pM, the IC50 [10] was 0.114 pM and the EC50 [11] was 8.4 µg/mL. For the same binder, the “IC50 (read off the curve)” value [12] was about 5 pM, the binding result (human Lymphotoxin α2-β1) was “no binding (tested: 25 µg/mL highest antibody concentration)” and the binding result (human Lymphotoxin α1-β2) was “no binding (tested: 25 µg/mL highest antibody concentration)”. B1: no binding (tested: 25 µg/mL highest antibody concentration) (human TNF-β); no binding (tested: 25 µg/mL highest antibody concentration) (human TNF-α); no binding (tested: 25 µg/mL highest antibody concentration) (human TNFSF14 (LIGHT)). B1: no binding (tested: 25 µg/mL highest antibody concentration) (human TNFSF10 (TRAIL)).
